Reference: paper doi:10.1101/2025.07.04.663224

Columns and labels:
[1] = molecular target: SmGdpP74 (cytosolic region of Streptococcus mutans GdpP, residues 74-654) (Streptococcus mutans strain NCTC10449); experiment: SEC
[2] = molecular target: SmGdpP74 (cytosolic region of Streptococcus mutans GdpP, residues 74-654) (Streptococcus mutans strain NCTC10449); experiment: cryo-EM structure
[3] = molecular target: SmGdpP74 (cytosolic region of Streptococcus mutans GdpP, residues 74-654) (Streptococcus mutans strain NCTC10449); experiment: AUC
[4] = molecular target: SmGdpP74 (cytosolic region of Streptococcus mutans GdpP, residues 74-654) (Streptococcus mutans strain NCTC10449); experiment: cryo-EM structure; remark: listed apart in the source
[5] = molecular target: SmGdpP74 (cytosolic region of Streptococcus mutans GdpP, residues 74-654) (Streptococcus mutans strain NCTC10449); experiment: cryo-EM structure; remark: listed apart in the source

Measured: stoichiometry N

SmGdpP74 (cytosolic region of Streptococcus mutans GdpP, residues 74-654) (domain or fragment)
4: all assays above
